Laboratory results as given in paper PMC12795676, “Integrin α5β1 mediates the inhibitory effects of vasoinhibin on angiogenesis and vascular permeability [drawing 1]” (The Journal of Biological Chemistry, 2025).
Substitutions are numbered along the chain they refer to. Names and notes keep the numbering of the source. Each block holds one molecule with its values, some of them ahead of it.

Target: T1, integrin α5β1 (Homo sapiens, UniProt P05556+P08648)
T1 construct: purchased Bio-Techne
Test: ELISA, binding to immobilized integrin α5β1
Settings: 100 nM mutant, compared with Vi
Procedure: Vi ([49]) and its mutants were produced as reported ([14]). HUVECs were cultured as reported ([14], [50]).
Plates coated with 2 μg mL^−1 integrin α5β1, PAI-1, or PAI-1-uPA complex (37 °C, 10 min) were incubated with B-Vi45-51, Vi, or 100 nM ViH46A, ViR48A, or ViH46A/R48A. Competition used excess Src, alanine mutants, or THGR peptides. Detection used horseradish peroxidase antibodies and 3,3′,5,5′-tetramethylbenzidine.

T1 sequence (P08648 42-995 limits assumed): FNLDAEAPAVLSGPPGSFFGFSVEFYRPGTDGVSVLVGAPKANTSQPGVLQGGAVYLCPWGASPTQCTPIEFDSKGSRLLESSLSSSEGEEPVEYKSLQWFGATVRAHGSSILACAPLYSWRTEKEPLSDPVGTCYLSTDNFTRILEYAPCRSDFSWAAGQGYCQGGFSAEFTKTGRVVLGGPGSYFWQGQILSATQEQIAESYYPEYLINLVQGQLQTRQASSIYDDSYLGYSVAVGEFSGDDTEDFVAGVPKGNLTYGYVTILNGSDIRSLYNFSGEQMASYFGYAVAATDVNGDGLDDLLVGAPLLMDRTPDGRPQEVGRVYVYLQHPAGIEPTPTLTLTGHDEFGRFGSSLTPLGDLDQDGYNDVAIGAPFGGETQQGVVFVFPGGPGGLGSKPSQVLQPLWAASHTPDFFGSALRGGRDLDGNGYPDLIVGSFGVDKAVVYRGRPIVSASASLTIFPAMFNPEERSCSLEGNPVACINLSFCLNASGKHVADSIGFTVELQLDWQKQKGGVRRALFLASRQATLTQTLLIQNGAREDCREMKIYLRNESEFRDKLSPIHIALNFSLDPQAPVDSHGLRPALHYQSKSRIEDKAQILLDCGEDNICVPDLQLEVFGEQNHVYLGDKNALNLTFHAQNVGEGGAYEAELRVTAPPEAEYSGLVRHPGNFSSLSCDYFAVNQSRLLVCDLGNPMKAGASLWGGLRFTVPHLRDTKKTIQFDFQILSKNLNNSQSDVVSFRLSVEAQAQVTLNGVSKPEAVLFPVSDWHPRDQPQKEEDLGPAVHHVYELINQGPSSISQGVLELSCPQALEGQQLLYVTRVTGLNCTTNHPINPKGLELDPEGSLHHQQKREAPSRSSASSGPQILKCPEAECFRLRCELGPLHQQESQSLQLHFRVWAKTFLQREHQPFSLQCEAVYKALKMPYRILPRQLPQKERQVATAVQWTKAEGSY
T1 sequence (P05556 21-728 limits assumed): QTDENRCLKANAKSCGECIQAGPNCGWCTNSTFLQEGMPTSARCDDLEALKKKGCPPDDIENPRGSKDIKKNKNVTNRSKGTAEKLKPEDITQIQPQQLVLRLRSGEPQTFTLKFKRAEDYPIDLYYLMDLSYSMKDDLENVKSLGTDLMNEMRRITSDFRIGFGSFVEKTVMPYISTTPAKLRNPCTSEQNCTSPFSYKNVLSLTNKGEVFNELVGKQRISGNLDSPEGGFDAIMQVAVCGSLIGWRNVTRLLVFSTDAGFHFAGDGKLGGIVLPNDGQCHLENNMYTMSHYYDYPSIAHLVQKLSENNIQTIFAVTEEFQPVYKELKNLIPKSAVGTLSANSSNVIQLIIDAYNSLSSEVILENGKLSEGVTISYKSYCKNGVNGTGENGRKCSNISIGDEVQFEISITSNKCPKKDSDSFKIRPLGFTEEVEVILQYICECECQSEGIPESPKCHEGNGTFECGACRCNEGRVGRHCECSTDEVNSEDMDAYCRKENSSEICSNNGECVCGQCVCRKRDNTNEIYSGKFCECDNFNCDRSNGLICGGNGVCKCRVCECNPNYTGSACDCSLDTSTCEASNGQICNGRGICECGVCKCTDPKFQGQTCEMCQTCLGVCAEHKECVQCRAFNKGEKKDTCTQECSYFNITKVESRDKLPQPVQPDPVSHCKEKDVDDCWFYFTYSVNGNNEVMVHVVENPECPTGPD

- Integrin α5β1 binding of Vi mutants: reduced integrin binding
B1: Vi-H46A: Vi mutant H46A (protein)
chain: LPICPGGAARCQVTLRDLFDRAVVLSHYIHNLSSEMFSEFDKRYTAGRGFITKAINSCHTSSLATPEDKEQAQQMNQKDFLSLIVSILRSWNEPLYHLVTEVRGMQEAPEAILSKAVEIEEQTKRLLEGMELIVSQVHPETKENEIYPVWSGLPSLQMADEESRLSAYYNLLHCLRRDSHKIDNYLKLLKCRIIHNNNC

- Integrin α5β1 binding of Vi mutants: reduced integrin binding
B2: Vi-H46A/R48A: Vi double mutant H46A/R48A (protein)
chain: B1 chain with R48A

- Integrin α5β1 binding of Vi mutants: reduced integrin binding
B3: Vi-R48A: Vi mutant R48A (protein)
chain: B1 chain with A46H, R48A
